This passage reports Kd results from paper PMC4174003 (2014).

Assay [1] deals with T1, PCSK9 (Mus musculus, UniProt Q80W65).
T1 chain: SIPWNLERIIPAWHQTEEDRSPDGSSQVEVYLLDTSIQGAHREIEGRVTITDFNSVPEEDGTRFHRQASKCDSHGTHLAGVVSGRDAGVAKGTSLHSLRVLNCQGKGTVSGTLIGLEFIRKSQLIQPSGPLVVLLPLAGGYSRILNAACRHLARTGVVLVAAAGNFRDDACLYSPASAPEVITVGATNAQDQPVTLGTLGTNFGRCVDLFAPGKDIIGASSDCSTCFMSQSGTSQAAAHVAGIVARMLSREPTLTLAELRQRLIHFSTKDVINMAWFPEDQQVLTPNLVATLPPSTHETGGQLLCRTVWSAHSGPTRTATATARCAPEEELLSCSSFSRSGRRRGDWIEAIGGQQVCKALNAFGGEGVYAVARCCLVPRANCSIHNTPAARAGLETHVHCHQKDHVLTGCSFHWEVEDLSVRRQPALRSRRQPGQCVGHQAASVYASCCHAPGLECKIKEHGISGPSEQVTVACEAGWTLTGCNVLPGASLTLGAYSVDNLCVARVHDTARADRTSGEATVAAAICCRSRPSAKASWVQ
As to the kind of experiment: SPR.

The target in assay [2] is PCSK9 (Homo sapiens, UniProt Q8NBP7). As to the kind of experiment: SPR.
PCSK9 (Homo sapiens, UniProt Q8NBP7), sequence (Q8NBP7 153-692): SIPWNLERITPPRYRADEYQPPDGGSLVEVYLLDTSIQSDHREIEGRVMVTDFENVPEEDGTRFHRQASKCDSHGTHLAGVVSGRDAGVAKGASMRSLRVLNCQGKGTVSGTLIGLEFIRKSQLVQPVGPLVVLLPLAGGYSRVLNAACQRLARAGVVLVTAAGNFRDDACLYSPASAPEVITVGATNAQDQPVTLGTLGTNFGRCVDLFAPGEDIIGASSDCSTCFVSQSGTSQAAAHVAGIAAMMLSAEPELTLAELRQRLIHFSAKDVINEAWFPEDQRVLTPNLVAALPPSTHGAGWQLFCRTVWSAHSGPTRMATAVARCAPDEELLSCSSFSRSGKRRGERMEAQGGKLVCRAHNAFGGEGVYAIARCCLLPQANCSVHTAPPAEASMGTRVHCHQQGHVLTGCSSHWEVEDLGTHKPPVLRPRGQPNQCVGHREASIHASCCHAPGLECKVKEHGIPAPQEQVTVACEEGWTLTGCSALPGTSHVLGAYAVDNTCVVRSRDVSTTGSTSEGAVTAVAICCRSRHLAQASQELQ

B1: alirocumab (antibody, V domains shown)
VH: EVQLVESGGGLVQPGGSLRLSCAASGFTFNNYAMNWVRQAPGKGLDWVSTISGSGGTTNYADSVKGRFIISRDSSKHTLYLQMNSLRAEDTAVYYCAKDSNWGNFDLWGRGTLVTVSS
VL: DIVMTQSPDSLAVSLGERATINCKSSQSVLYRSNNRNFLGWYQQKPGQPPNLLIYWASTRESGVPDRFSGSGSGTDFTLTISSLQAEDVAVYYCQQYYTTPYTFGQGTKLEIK
For the molecule B1, the values for the dissociation constant (Kd) in the assay with PCSK9 [1] and in the assay with PCSK9 [2] were 2.6 nM and 0.58 nM, respectively.
